The target in experiment [1] is T1, EphA2-Fc (Homo sapiens, UniProt P29317).
T1 construct: consisted of the extracellular domain of human EphA2 linked to human immunoglobulin
Description: Competitive ELISA: inhibition of labeled EA2 binding to EphA2-Fc. Particulars: unlabeled antibody, increasing concentrations; FIG. 1. On the procedure: The ability of labeled EA2 monoclonal antibody to bind EphA2-Fc was assayed by competitive ELISA in presence of either unlabeled monoclonal antibodies EA2 or Eph099B-208.261. Ratios of unlabeled to labeled antibody used in the assay are indicated on the x-axis. EA2 is indicated by diamonds and Eph099B-208.261 is indicated by squares.
Monoclonal antibodies against the extracellular domain of EphA2 were generated using the fusion protein EphA2-Fc. This fusion protein consisted of the extracellular domain of human EphA2 linked to human immunoglobulin to facilitate secretion of the fusion protein.
Supernatants from bulk culture hybridomas were screened for immunoreactivity against EphA2 (Table 6, column 4) using standard molecular biological techniques (e.g., ELISA immunoassay). Supernatants were further screened for the ability to inhibit an EphA2 monoclonal antibody (EA2; ATCC deposit no. PTA-4380; see co-pending U.S. patent application Ser. No. 10/436,783, entitled “EphA2 Agonistic Monoclonal Antibodies and Methods of Use Thereof' filed May 12, 2003) from binding to EphA2. Briefly, the ability of labeled EA2 to bind EphA2-Fc was assayed by competitive ELISA in presence of either unlabeled EA2 or unlabeled Eph099B-208.261 (FIG. 1). […] Additionally, many of the other antibodies could inhibit EA2 binding to EphA2 as well (Table 6, column 3).

The test system of experiment [2] is EphA2. Description: EphA2 degradation / protein level in MDA-MB-231 cells (western blot). Format: cell-based. Particulars: MDA-MB-231 monolayers, single dose 5 μg/ml, 37° C. On the procedure: Monolayers of MDA-MB-231 cells were incubated in the presence of a single dose of 5 μg/ml (A, C) Eph099B-208.261 or (B, D) EA2 for the indicated time at 37° C. Cell lysates were then resolved by SDS-PAGE and subjected to western blot analysis with an EphA2-specific antibody (A, B). The membranes were stripped and re-probed with a β-catenin-specific antibody as a loading control (C, D).
Chain of EphA2 (P29317 24-976): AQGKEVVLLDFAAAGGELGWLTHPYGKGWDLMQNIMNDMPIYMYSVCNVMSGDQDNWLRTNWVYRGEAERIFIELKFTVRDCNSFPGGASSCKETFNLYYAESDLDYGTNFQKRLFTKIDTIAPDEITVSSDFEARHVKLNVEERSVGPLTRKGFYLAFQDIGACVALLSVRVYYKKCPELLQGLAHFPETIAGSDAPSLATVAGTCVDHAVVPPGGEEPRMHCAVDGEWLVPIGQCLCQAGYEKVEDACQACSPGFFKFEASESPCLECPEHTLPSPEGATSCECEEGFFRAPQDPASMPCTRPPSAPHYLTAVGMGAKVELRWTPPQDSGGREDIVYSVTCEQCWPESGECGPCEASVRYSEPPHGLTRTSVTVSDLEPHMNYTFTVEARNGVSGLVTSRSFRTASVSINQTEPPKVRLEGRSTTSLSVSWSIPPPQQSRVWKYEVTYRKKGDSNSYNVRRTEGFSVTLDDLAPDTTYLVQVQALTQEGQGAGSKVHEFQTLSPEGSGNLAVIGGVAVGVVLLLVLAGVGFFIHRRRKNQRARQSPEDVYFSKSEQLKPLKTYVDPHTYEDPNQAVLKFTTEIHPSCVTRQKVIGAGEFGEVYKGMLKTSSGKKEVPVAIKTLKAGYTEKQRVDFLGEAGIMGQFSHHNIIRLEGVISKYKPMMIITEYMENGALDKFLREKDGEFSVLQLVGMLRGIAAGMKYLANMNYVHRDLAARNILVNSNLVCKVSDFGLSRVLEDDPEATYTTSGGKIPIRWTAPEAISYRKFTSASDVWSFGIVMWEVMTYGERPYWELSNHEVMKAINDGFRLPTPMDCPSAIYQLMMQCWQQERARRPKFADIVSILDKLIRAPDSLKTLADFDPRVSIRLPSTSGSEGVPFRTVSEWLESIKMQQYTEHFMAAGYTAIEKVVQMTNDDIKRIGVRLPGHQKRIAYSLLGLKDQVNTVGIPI
Monolayers of MDA-MB-231 cells were incubated in the presence of a single dose of 5 μg/ml Eph099B-233.152 at 37° C. Cell lysates were then immunoprecipitated with D7 (an EphA2-specific antibody), resolved by SDS-PAGE and subjected to western blot analysis with (A) a phosphotyrosine-specific antibody or (B) an EphA2-specific antibody.
Monolayers of MDA-MB-231 cells were incubated in the presence of EphA2 agonistic antibodies at 37° C. Cell lysates were then resolved by SDS-PAGE and subjected to western blot analysis with an EphA2-specific antibody (D7). […] Some membranes were stripped and re-probed with a β-catenin-specific antibody as a loading control (FIGS. 3C-3D). […] Decreased EphA2 expression is due, in part, to deceased mRNA expression levels in response to EphA2 protein degradation caused by agonistic antibody binding (data not shown).
Western blot analyses and immunoprecipitations were performed as described previously (Zantek et al., 1999, Cell Growth Diff. 10:629-38, which is incorporated by reference in its entirety). Briefly, detergent extracts of cell monolayers were extracted in Tris-buffered saline containing 1% Triton X-100 (Sigma, St. Louis, Mo.). After measuring protein concentrations (BioRad, Hercules, Calif.), 1.5 mg of cell lysate was immunoprecipitated, resolved by SDS-PAGE and transferred to nitrocellulose (PROTRAN™, Schleicher and Schuell, Keene, N.H.). Antibody binding was detected by enhanced chemiluminescence (Pierce, Rockford, Ill.) and autoradiography (Kodak X-OMAT; Rochester, N.Y.).

Experiment [3] has as its system malignant MDA-MB-231 tumor cells. Briefly: Inhibition of colony formation in soft agar. The experiment is classed as cell-based. Particulars: MDA-MB-231, single dose 5 μg/ml, 37° C. On the procedure:
FIG. 5: EphA2 antibodies inhibit malignant tumor cell growth in soft agar. A single dose of 5 μg/ml of Eph099B-208.261 (black bar), EA2 (white bar) purified EphA2 antibodies or a negative control antibody, 1A7 (gray bar) were incubated with malignant MDA-MB-231 tumor cells for the indicated time at 37° C. in soft agar. Results are reported as colonies per high-powered field (HPF).
The ability of the antibodies of the invention to inhibit cancer cell formation in soft agar was assayed as described in Zelinski et al. (2001, Cancer Res. 61:2301-6). Briefly, cells were suspended in soft agar for 7 days at 37° C. in the presence of purified antibody or control solution (PBS). Antibodies were administered at the time of suspension in both bottom and top agar solutions. Colony formation was scored microscopically using an Olympus CK-3 inverted phase-contrast microscope outfitted with a 40× objective. Clusters containing at least three cells were scored as a positive.

Experiment [4] has as its target T2, EphA2-Ephrin A1-Fc complex (Homo sapiens, UniProt P29317).
T2 construct: consisting of the extracellular domain of EphA2 linked to human IgG1 constant region
Description: Binding of biotinylated protein to EphA2-Ephrin A1-Fc complex on microtiter plate. The following applies: FIG. 18A. On the procedure:
FIGS. 18A-18B: EphA2 EA2 epitope is distinct from Eph099B-233.152 epitope and ligand binding site. (A) EphA2-Fc was incubated with and bound to immobilized Ephrin A1-Fc. Labeled Ephrin A1-Fc (black), EA2 (white) or Eph099B-233.152 (grey) was incubated with the EphA2-Ephrin A1-Fc complex and amount of binding was measured. (B) EphA2-Fc was incubated with and bound to immobilized Ephrin A1-Fc. Labeled EA2 was then incubated with the EphA2-Ephrin A1 complex. Unlabeled competitor was incubated with EphA2-Ephrin A1-EA2 complex in the indicated amount. Competitors were Ephrin A1-Fc (black), EA2 (white) or Eph099B-233.152 (grey).
A microtiter plate was coated with […] Ephrin A1-Fc overnight at 4° C. A fusion protein consisting of the extracellular domain of EphA2 linked to human IgG1 constant region (EphA2-Fc) was incubated with and bound to the immobilized Ephrin A1-Fc. Biotinylated Ephrin A1-Fc, EA2, or Eph099B-233.152 was incubated with the EphA2-Ephrin A1-Fc complex and amount of binding was measured.

Entries after “also recorded” stand apart in the source; their conditions may differ.

The source of these data is patent US20100278838A1, “EPHA2 MONOCLONAL ANTIBODIES AND METHODS OF USE THEREOF” (MEDIMMUNE, LLC, priority 2002, published 2010).

T1 sequence (P29317 24-537 limits assumed): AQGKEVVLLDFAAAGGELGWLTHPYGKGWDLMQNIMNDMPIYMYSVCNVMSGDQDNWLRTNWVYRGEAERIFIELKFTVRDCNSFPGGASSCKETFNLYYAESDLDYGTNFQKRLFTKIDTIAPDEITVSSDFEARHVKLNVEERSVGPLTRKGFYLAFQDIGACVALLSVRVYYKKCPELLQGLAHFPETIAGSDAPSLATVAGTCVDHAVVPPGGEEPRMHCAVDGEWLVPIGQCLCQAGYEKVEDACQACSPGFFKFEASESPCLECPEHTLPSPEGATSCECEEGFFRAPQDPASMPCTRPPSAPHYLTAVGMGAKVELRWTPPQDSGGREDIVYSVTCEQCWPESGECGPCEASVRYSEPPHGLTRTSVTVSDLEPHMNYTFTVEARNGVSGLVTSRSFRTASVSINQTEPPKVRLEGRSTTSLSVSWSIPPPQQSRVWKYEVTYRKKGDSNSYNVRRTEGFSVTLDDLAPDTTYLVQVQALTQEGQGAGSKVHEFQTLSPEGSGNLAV
T2 sequence (P29317 24-537 limits assumed): as above
T2 sequence (P20827 19-182 partner limits assumed): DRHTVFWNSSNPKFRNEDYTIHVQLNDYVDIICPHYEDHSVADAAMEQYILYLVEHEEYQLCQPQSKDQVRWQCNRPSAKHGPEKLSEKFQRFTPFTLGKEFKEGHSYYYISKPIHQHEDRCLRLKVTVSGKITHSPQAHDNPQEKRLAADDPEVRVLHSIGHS

B1: EA2: EphA2 agonistic monoclonal antibody; ATCC deposit no. PTA-4380; co-pending application Ser. No. 10/436,783; VL SEQ ID NO:33, VH SEQ ID NO:37 (antibody, listed as Homo Sapiens, V domains shown)
VH: DVKLVESGGGLVKPGGSLKLSCAASGFTFSSYTMSWVRQTPEKRLEWVATISSGGTYTYYPDSVKGRFTISRDNAKNTLYLQMSSLKSEDTAMYYCTREAIFTYWGQGTLVTVSA
VL: DIKMTQSPSSMYASLGERVTITCKASQDINNYLSWFQQKPGKSPKTLIYRANRLVDGVPSRFSGSGSGQDYSLTISSLEYEDMGIYYCLKYDEFPYTFGGGTKLEIK
B1: in experiment [1], the “Competition with labeled EA2 for binding to EphA2-Fc” value was “could decrease the amount of labeled EA2 binding to EphA2-Fc”. The EphA2 protein level entry in experiment [2] is listed as “decreased EphA2 protein level”. In addition, in experiment [3], the “Colony growth in soft agar” value was “inhibited colony growth in soft agar”. Further, the “Amount of binding to EphA2-Ephrin A1-Fc complex” value in experiment [4] was “considerable levels”.

B2: Eph099B-208.261: EphA2 monoclonal antibody; hybridoma ATCC PTA-4573; VL SEQ ID NO:1, VH SEQ ID NO:5 (antibody, listed as Homo sapiens, V domains shown)
VH: QVQLQQPGAELVKPGASVKLSCKASGYTFTSYWMHWVKQRPGQGLEWIGMIHPNSGSTNYNEKFKSKATLTVDKSSSTAYMRLSSLTSEDSAVYYCARGGNMVGGGYWGQGTTLTVSS
VL: QIVLTQSPALMSASPGEKVTMTCSASSSVSYMYWYQQKPRSSPKPWIYLTTNLASGVPARFSGSGSGTSYSLTISSMEAEDAATYYCQQWSSNPFTFGSGTKLEIR
Turning to B2, the “Competition with labeled EA2 for binding to EphA2-Fc” value in experiment [1] is “could decrease the amount of labeled EA2 binding to EphA2-Fc; also recorded: can compete with EA2 for binding to EphA2”. Besides, the EphA2 protein level entry in experiment [2] is “decreased EphA2 protein level”. Moreover, the “Colony growth in soft agar” value in experiment [3] is “inhibited colony growth in soft agar”.

B3: Eph099B-233.152: EphA2 monoclonal antibody; hybridoma ATCC PTA-5194; VL SEQ ID NO:17, VH SEQ ID NO:21 (antibody, listed as Homo sapiens, V domains shown)
VH: EVKLVESGGGLVQPGGSLSLSCAASGFTFTDYSMNWVRQPPGKALEWLGFIRNKANDYTTEYSASVKGRFTISRDNSQSILYLQMNALRAEDSATYYCVRYPRYHAMDSWGQGTSVTVSS
VL: DIVLTQSPATLSVTPGDSVNLSCRASQSISNNLHWYQQKSHESPRLLIKYVFQSISGIPSRFSGSGSGTDFTLSINSVETEDFGMYFCQQSNSWPLTFGAGTKLELK
Take B3: the EphA2 protein level result in experiment [2] was “decreased EphA2 protein level; also recorded: EphA2 degradation”. Also, the “Amount of binding to EphA2-Ephrin A1-Fc complex” value in experiment [4] was “considerable levels”.
